The values below come from FireProtDB (doi:10.1016/0022-2836(92)90563-y).

To fix the notation:
B1: Ribonuclease, P00648 (parent)
chain: MMKMEGIALKKRLSWISVCLLVLVSAAGMLFSTAAKTETSSHKAHTEAQVINTFDGVADYLQTYHKLPDNYITKSEAQALGWVASKGNLADVAPGKSIGGDIFSNREGKLPGKSGRTWREADINYTSGFRNSDRILYSSDWLIYKTTDHYQTFTKIR

Variants of B1 are the subject of this data set. The note with it: Bacillus amyloliquefaciens; pH 6.3; 25 °C; Urea; Fluorescence; MES 50 micro M; reversible: yes; structure 1BNI; whole UniProt chain shown.
With MMKMEGIALKKRLSWISVCLLVLVSAAGMLFSTAAKTETSSHKAHTEAQVINTFDGVADYLQTYHKLPDNYITKSEAQALGWTASKGNLADVAPGKSIGGDIFSNREGKLPGKSGRTWREADINYTSGFRNSDRILYSSDWLIYKTTDHYQTFTKIR [V83T], the “ddG of mutation (higher = less stable)” value was found to be 1.15 kcal/mol. Then MMKMEGIALKKRLSWISVCLLVLVSAAGMLFSTAAKTETSSHKAHTEAQVINTFDGVADYLQSAHKLPDNYITKSEAQALGWVASKGNLADVAPGKSIGGDIFSNREGKLPGKSGRTWREADINYTSGFRNSDRILYSSDWLIYKTTDHYQTFTKIR [T63S Y64A], with 2.55 kcal/mol; and MMKMEGIALKKRLSWISVCLLVLVSAAGMLFSTAAKTETSSHKAHTEAQVINTFDGVADYLQTYHKLPDNYITKSEAQALGWVASKGNLADVAPGKSIGGDIFSNREGKLPGKSGRTWREADINYTSGFRNSDRILYSSDWLIYKTTDHYQVFTKIR [T152V], with 2.25 kcal/mol; and MMKMEGIALKKRLSWISVCLLVLVSAAGMLFSTAAKTETSSHKAHTEAQVINTFDGVADYLQTYHKLPDNYITKSEAQALGWVASKGNLADTAPGKSIGGDIFSNREGKLPGKSGRTWREADINYTSGFRNSDRILYSSDWLIYKTTDHYQTFTKIR [V92T], with 2.32 kcal/mol. Take MMKMEGIALKKRLSWISVCLLVLVSAAGMLFSTAAKTETSSHKAHTEAQVINTFDGVADYLQTYHKLPDNYITKSEAQALGWVASKGNLADAAPGKSIGGDIFSNREGKLPGKSGRTWREADINYTSGFRNSDRILYSSDWLIYKTTDHYQTFTKIR [V92A]: the “ddG of mutation (higher = less stable)” value amounted to 1.72 kcal/mol. Then MMKMEGIALKKRLSWISVCLLVLVSAAGMLFSTAAKTETSSHKAHTEAQVINTFDGVADYLQTYHKLPDNYITKSEAQALGWVASKGNLADVAPGKSIGGDIFSNREGKLPGKSGRTWREADINYTSGFRNSDRILYSSDWLIYKVTDHYQTFTKIR [T146V], with 2.99 kcal/mol; and MMKMEGIALKKRLSWISVCLLVLVSAAGMLFSTAAKTETSSHKAHTEAQVINTFDGAADYLQTYHKLPDNYITKSEAQALGWVASKGNLADVAPGKSIGGDIFSNREGKLPGKSGRTWREADINYTSGFRNSDRILYSSDWLIYKTTDHYQTFTKIR [V57A], with 3.4 kcal/mol. Next, MMKMEGIALKKRLSWISVCLLVLVSAAGMLFSTAAKTETSSHKAHTEAQVINTFDGTADYLQTYHKLPDNYITKSEAQALGWVASKGNLADVAPGKSIGGDIFSNREGKLPGKSGRTWREADINYTSGFRNSDRILYSSDWLIYKTTDHYQTFTKIR [V57T]: 2.48 kcal/mol; MMKMEGIALKKRLSWISVCLLVLVSAAGMLFSTAAKTETSSHKAHTEAQVINTFDGVADYLQTYHKLPDNYITKSEAQALGWVASKGNLADVAPGKSIGGDIFSNREGKLPGKSGRTWREADINYTSGFRNSDRILYASDWLIYKTTDHYQTFTKIR [S138A]: 1.94 kcal/mol. Next, MMKMEGIALKKRLSWISVCLLVLVSAAGMLFSTAAKTETSSHKAHTEAQVINTFDGVADYLQTYHKLPDNYITKSEAQALGWVASKGNLADVAPGKSIGGDIFSNREGKLPGKSGRTWREADINYTSGFRASDRILYSSDWLIYKTTDHYQTFTKIR [N131A]: 2.02 kcal/mol. Consider MMKMEGIALKKRLSWISVCLLVLVSAAGMLFSTAAKTETSSHKAHTEAQVINTFDGVADALQTAHKLPDNYITKSEAQALGWVASKGNLADVAPGKSIGGDIFSNREGKLPGKSGRTWREADINYTSGFRNSDRILYSSDWLIYKTTDHYQTFTKIR [Y60A Y64A], for which the “ddG of mutation (higher = less stable)” value came out at 5 kcal/mol. MMKMEGIALKKRLSWISVCLLVLVSAAGMLFSTAAKTETSSHKAHTEAQVINTFDGVADYLQTYHKLPDNYITKSEAQALGWVASKGNLADVAPGKSIGGDIFSNREGKLPGKSGRTWREADVNYTSGFRNSDRILYSSDWLIYKTTDHYQTFTKIR [I123V]: the “ddG of mutation (higher = less stable)” value was found to be 0.82 kcal/mol. Then MMKMEGIALKKRLSWISVCLLVLVSAAGMLFSTAAKTETSSHKAHTEAQVINTFDGVADYLQTYHKLPDNYITKSEAQALGWVASKGNLADVAPGKSIGGDIFSNREGKLPGKSGRTWREADINYTSGFRNSDRILYSSDWLIYKTTDHYQTFTKVR [I156V], with 0.76 kcal/mol; and MMKMEGIALKKRLSWISVCLLVLVSAAGMLFSTAAKTETSSHKAHTEAQVINTFDGVADYLQTAHKLPDNYITKSEAQALGWVASKGNLADVAPGKSIGGDIFSNREGKLPGKSGRTWREADINYTSGFRNSDRILYSSDWLIYKTTDHYQTFTKIR [Y64A], with 2.43 kcal/mol; and MMKMEGIALKKRLSWISVCLLVLVSAAGMLFSTAAKTETSSHKAHTEAQVINTFDGVADYLQTYHKLPDNYITKSEAQALGWVASKGNLADVAPGKSVGGDIFSNREGKLPGKSGRTWREADINYTSGFRNSDRILYSSDWLIYKTTDHYQTFTKIR [I98V], with 1.8 kcal/mol. Next, MMKMEGIALKKRLSWISVCLLVLVSAAGMLFSTAAKTETSSHKAHTEAQVINTFDGVADYLQTYHKLPDNYITKSEAQALGWVASKGNLADVAPGKSIGGDIFSAREGKLPGKSGRTWREADINYTSGFRNSDRILYSSDWLIYKTTDHYQTFTKIR [N105A]: 2.17 kcal/mol; MMKMEGIALKKRLSWISVCLLVLVSAAGMLFSTAAKTETSSHKAHTEAQVINTFDGVADYLQTYQKLPDNYITKSEAQALGWVASKGNLADVAPGKSIGGDIFSNREGKLPGKSGRTWREADINYTSGFRNSDRILYSSDWLIYKTTDHYQTFTKIR [H65Q]: 1.44 kcal/mol; MMKMEGIALKKRLSWISVCLLVLVSAAGMLFSTAAKTETSSHKAHTEAQVINTFDGVADYAQTYHKLPDNYITKSEAQALGWVASKGNLADVAPGKSIGGDIFSNREGKLPGKSGRTWREADINYTSGFRNSDRILYSSDWLIYKTTDHYQTFTKIR [L61A]: 4.32 kcal/mol.
